Data taken from publication PMC12449476, “Transient ligand contacts of the intrinsically disordered N-terminus of neuropeptide Y2 receptor regulate arrestin-3 recruitment” (Nature Communications, 2025).
Residue numbers refer to the chain shown, from its start.

What was measured:
WT Nluc-Y2R-eYFP [1] = target: T1, WT Nluc-Y2R-eYFP (Homo sapiens, UniProt P49146); test: NanoBRET equilibrium ligand binding
T1 construct: expressed in transfected cells; host or cells: membrane preparations of transiently transfected HEK293
T1 sequence (P49146 1-381): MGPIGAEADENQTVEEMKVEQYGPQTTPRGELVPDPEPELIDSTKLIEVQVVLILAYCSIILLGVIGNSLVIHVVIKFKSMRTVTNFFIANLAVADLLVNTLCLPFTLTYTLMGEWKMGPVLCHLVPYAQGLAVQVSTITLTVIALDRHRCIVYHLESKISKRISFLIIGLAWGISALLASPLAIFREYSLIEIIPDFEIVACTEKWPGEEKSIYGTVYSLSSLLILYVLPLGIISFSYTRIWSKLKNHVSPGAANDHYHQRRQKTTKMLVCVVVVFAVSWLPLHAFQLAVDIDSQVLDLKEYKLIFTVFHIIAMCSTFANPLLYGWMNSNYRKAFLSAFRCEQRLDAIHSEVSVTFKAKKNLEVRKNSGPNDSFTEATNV
Description: Briefly, for each data point, membranes containing 0.03 μg total protein were suspended in ice-cold BRET binding buffer (Hank’s balanced salt solution (HBSS) containing 20 mM HEPES (pH 7.4), 0.1% bovine serum albumin (BSA)). The assay was performed in solid black 96-WP with a total assay volume of 100 μL in technical duplicate or triplicate. […] Raw BRET was calculated as the ratio of fluorescence to luminescence, and the background value of the unspecific binding controls was subtracted to obtain the netBRET signal.

Nluc-Y2R-eYFP D/E35-39K = target: T2, Nluc-Y2R-eYFP D/E35-39K (Homo sapiens, UniProt P49146, D35K/E37K/E39K); test: NanoBRET equilibrium ligand binding
T2 construct: expressed in transfected cells; host or cells: HEK293, transiently transfected, membrane preparations
T2 sequence (P49146 1-381 D35K/E37K/E39K): T1 sequence (P49146 1-381) with D35K, E37K, E39K
Description: (§1) Briefly, for each data point, membranes containing 0.03 μg total protein were suspended in ice-cold BRET binding buffer (Hank’s balanced salt solution (HBSS) containing 20 mM HEPES (pH 7.4), 0.1% bovine serum albumin (BSA)). The assay was performed in solid black 96-WP with a total assay volume of 100 μL in technical duplicate or triplicate. […] To determine unspecific binding, 100 µM of the Y2R antagonist JNJ-31020028 (Selleck Europe) were added to each well. […] To start the dissociation measurement, the antagonist JNJ-31020028 was added to a final concentration of 50 µM (20 µL) using the built-in injector system of the plate reader and the BRET decay was measured for 20 min. Raw BRET was calculated as the ratio of fluorescence to luminescence, and the background value of the unspecific binding controls was subtracted to obtain the netBRET signal.

Nluc-Y2R-eYFP E15-20K = target: T3, Nluc-Y2R-eYFP E15-20K (Homo sapiens, UniProt P49146, E15K/E16K/E20K); test: NanoBRET equilibrium ligand binding
T3 construct: expressed in transfected cells; host or cells: membrane preparations of transiently transfected HEK293
T3 sequence (P49146 1-381 E15K/E16K/E20K): T1 sequence (P49146 1-381) with E15K, E16K, E20K
Description: as §1

WT Nluc-Y2R-eYFP [2] = target: T1, WT Nluc-Y2R-eYFP; conditions: cited from earlier work
Excerpt: In the following, we are addressing the Reviewer’s comments point‐by‐point. We quote statements from the Reviewer in bold face. We refer to changes made in the manuscript in yellow italics. Reviewer #1 (Remarks to the Author): In this work ...

Substance: K18-Tamra-NPY: tetramethylrhodamine(Tamra)-labeled peptide (K^18-Tamra-NPY)
- BRETmax (WT Nluc-Y2R-eYFP [1]; HEK293 membranes, 10 min RT, mean, 95% CI 0.0273 to 0.0311): 0.0292
- Fraction high affinity (WT Nluc-Y2R-eYFP [1]; mean, 95% CI 0.0352 to 0.0881): 0.0617
- KD, high replicates (log) (WT Nluc-Y2R-eYFP [1]; replicate 1): -9.88
- KD, low replicates (log) (WT Nluc-Y2R-eYFP [1]; replicate 1): -6.52
- KD, high replicates (log) (WT Nluc-Y2R-eYFP [1]; replicate 2): -9.40
- KD, low replicates (log) (WT Nluc-Y2R-eYFP [1]; replicate 2): -6.56
- KD, high replicates (log) (WT Nluc-Y2R-eYFP [1]; replicate 3): -9.43
- KD, low replicates (log) (WT Nluc-Y2R-eYFP [1]; replicate 3): -6.54
- BRETmax (Nluc-Y2R-eYFP D/E35-39K; HEK293 membranes, 10 min RT, mean, 95% CI 0.025 to 0.0287): 0.0270
- Fraction high affinity (Nluc-Y2R-eYFP D/E35-39K; mean, 95% CI 0 to 0.1938): 0.0957
- KD, high replicates (log) (Nluc-Y2R-eYFP D/E35-39K; replicate 1): -9.38
- KD, low replicates (log) (Nluc-Y2R-eYFP D/E35-39K; replicate 1): -6.53
- KD, high replicates (log) (Nluc-Y2R-eYFP D/E35-39K; replicate 2): -9.46
- KD, low replicates (log) (Nluc-Y2R-eYFP D/E35-39K; replicate 2): -6.67
- KD, high replicates (log) (Nluc-Y2R-eYFP D/E35-39K; replicate 3): -10.11
- KD, low replicates (log) (Nluc-Y2R-eYFP D/E35-39K; replicate 3): -6.65
- BRETmax (Nluc-Y2R-eYFP E15-20K; HEK293 membranes, 10 min RT, mean, 95% CI 0.0243 to 0.0371): 0.0307
- Fraction high affinity (Nluc-Y2R-eYFP E15-20K; mean, 95% CI 0.0705 to 0.0862): 0.0783
- KD, high replicates (log) (Nluc-Y2R-eYFP E15-20K; replicate 1): -9.24
- KD, low replicates (log) (Nluc-Y2R-eYFP E15-20K; replicate 1): -6.58
- KD, high replicates (log) (Nluc-Y2R-eYFP E15-20K; replicate 2): -9.21
- KD, low replicates (log) (Nluc-Y2R-eYFP E15-20K; replicate 2): -6.52
- KD, high replicates (log) (Nluc-Y2R-eYFP E15-20K; replicate 3): -9.93
- KD, low replicates (log) (Nluc-Y2R-eYFP E15-20K; replicate 3): -6.58
- KD,high (WT Nluc-Y2R-eYFP [2]; G-protein-dependent high-affinity state): subnanomolar
- Kd (WT Nluc-Y2R-eYFP [2]; G-protein-independent low-affinity state): ~300 nM
